As usually defined, the Kd is the concentration at which binding is half-saturated. Lower therefore signals a tighter complex.

Where a chain is given by its changes, count along the chain named. In names and notes the source's numbering stands.

The text below walks through data of US20200317768A1 (published 2020).

T1: human FcγRIIaR extracellular domain, C-terminal His-tag (human, UniProt P12318 34-217)
T1 construct: also called human FcγRIIa (type R); FcgRIIaR; not shown: His-tag added to the C-terminus
T1 chain: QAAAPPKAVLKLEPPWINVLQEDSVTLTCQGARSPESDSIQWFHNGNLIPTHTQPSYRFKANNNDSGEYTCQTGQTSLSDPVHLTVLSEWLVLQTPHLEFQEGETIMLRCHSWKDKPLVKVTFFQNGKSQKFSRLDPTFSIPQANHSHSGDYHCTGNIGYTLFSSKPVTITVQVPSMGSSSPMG

T2: human FcγRIIaH extracellular domain, C-terminal His-tag (human, UniProt P12318 34-217)
T2 construct: also called human FcγRIIa (type H); FcgRIIaH; not shown: His-tag added to the C-terminus
T2 sequence: T1 chain with R134H

T3: human FcγRIIb extracellular domain, C-terminal His-tag (human, UniProt P31994 43-217)
T3 construct: also called FcgRIIb; not shown: His-tag added to the C-terminus
T3 sequence: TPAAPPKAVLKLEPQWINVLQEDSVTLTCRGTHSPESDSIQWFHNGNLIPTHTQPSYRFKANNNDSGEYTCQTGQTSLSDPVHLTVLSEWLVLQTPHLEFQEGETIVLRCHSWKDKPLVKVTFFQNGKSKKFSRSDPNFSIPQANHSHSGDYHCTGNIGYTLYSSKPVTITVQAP

B1: MS103240H795-TT27/M103202L1045-SK1 (antibody, human IgG1, kappa)
heavy: QVQLVESGGGLVQPGGSLRLSCAVSGIDLSHDDISWVRQAPGKGLEWVSIISYAGSTYYASWAKGRLTISKDTSKNQVVLTMTNMDPVDTATYYCARGVPAYSHGGDLWGQGTLVTVSSASTKGPSVFPLAPSSKSTSGGTAALGCLVKDYFPEPVTVSWNSGALTSGVHTFPAVLQSSGLYSLSSVVTVPSSSLGTQTYICNVNHKPSNTKVDKKVEPKSCDKTHTCPPCPAPEYLGGDSVFLFPPKPKDVLMISRTPEVTCVVVDVSHEDPEVKFNWYVDGVEVHNAKTKPREEQYNSTYRVVSVLPVLHRDWLNGKEYKCKVSNKALPKPIEKTISKAKGQPREPQVYTLPPSREEMTKNQVSLTCLVKGFYPSDIAVEWESNGQPENNYKTTPPVLDSDGSFFLYSKLTVKKSRWQQGNVFSCSVMHEALHNHYTQKSLSLSP
light: DIVMTQSPATLSLSPGERATLSCTTSQSVYHENWLSWFQQKPGQPPKLLIYWASTLAYGVPSRFSGSGSGTDFTLTISSLQPEDAATYYCAGGYGGGRYAFGQGTKVEIKRTVAAPSVFIFPPSDEQLKSGTASVVCLLNNFYPREAKVQWKVDNALQSGNSQESVTEQDSKDSTYSLSSTLTLSKADYEKHKVYACEVTHQGLSSPVTKSFNRGEC
notes: CH = SG1 with L234Y/P238D/T250V/T307P/Q311R/A330K/D413K (EU numbering)
B2: MS103240H795-TT30/M103202L1045-SK1 (antibody, human IgG1, kappa)
heavy: B1 heavy with Y236L, V266I, S269A, P345R, K415D
light: B1 light
notes: CH = SG1 with P238D/T250V/V264I/S267A/T307P/Q311R/A330K/P343R (EU numbering)
B3: MS103240H795-TT33/M103202L1045-SK1 (antibody, human IgG1, kappa)
heavy: B1 heavy with V266I
light: B1 light
notes: CH = SG1 with L234Y/P238D/T250V/V264I/T307P/Q311R/A330K/D413K (EU numbering)
B4: MS103240H795-TT28/M103202L1045-SK1 (antibody, human IgG1, kappa)
heavy: B1 heavy with S269A, P345R, K415D
light: B1 light
notes: CH = SG1 with L234Y/P238D/T250V/S267A/T307P/Q311R/A330K/P343R (EU numbering)
B5: MS103240H795-TT35/M103202L1045-SK1 (antibody, human IgG1, kappa)
heavy: B1 heavy with V266I, S269A
light: B1 light
notes: CH = SG1 with L234Y/P238D/T250V/V264I/S267A/T307P/Q311R/A330K/D413K (EU numbering)
B6: MS103240H795-TT31/M103202L1045-SK1 (antibody, human IgG1, kappa)
heavy: B1 heavy with Y236L, V266I, S269A
light: B1 light
notes: CH = SG1 with P238D/T250V/V264I/S267A/T307P/Q311R/A330K/D413K (EU numbering)
B7: MS103240H795-TT32/M103202L1045-SK1 (antibody, human IgG1, kappa)
heavy: B1 heavy with V266I, P345R, K415D
light: B1 light
notes: CH = SG1 with L234Y/P238D/T250V/V264I/T307P/Q311R/A330K/P343R (EU numbering)
B8: MS103240H795-TT34/M103202L1045-SK1 (antibody, human IgG1, kappa)
heavy: B1 heavy with V266I, S269A, P345R, K415D
light: B1 light
notes: CH = SG1 with L234Y/P238D/T250V/V264I/S267A/T307P/Q311R/A330K/P343R (EU numbering)
B9: MS103240H795-TT29/M103202L1045-SK1 (antibody, human IgG1, kappa)
heavy: B1 heavy with S269A
light: B1 light
notes: CH = SG1 with L234Y/P238D/T250V/S267A/T307P/Q311R/A330K/D413K (EU numbering)

The first test deals with T1, human FcγRIIaR extracellular domain, …. Description: SPR (BIACORE), antibody captured, soluble FcgR as analyte, 25C. The protocol: (§1) The kinetic analysis of interactions between these antibodies and FcγR was carried out using BIACORE® T200 or BIACORE® 4000 (GE Healthcare). HBS-EP+ (GE Healthcare) was used as the running buffer, and the measurement temperature was set to 25° C. A chip produced by immobilizing Protein A. Protein A/G or mouse anti-human IgG kappa light chain (BD Biosciences) onto a Series S Sensor Chip CM4 or CM5 (GE Healthcare) by the amine-coupling method was used. […] After the measurement, the antibody captured on the chip was washed off by allowing reaction with 10 mM glycine-HCl, pH1.5 and 25 mM NaOH so that the chip was regenerated and used repeatedly. The sensorgrams obtained as measurement results were analyzed by the 1:1 Langmuir binding model using the BIACORE® Evaluation Software to calculate the binding rate constant ka (L/mol/s) and dissociation rate constant kd (l/s), and the dissociation constant KD (mol/L) was calculated from these values. […] Regarding such interactions, KD values were calculated using the following 1:1 binding model described in BIACORE® T100 Software Handbook BR1006-48 Edition AE.
(§2) Human FcγRIIb-enhanced Fc variants with anti-myostatin variable region were constructed and their affinity for human FcγRs was evaluated. […] In addition, substitutions (Q311R/D413K or […]) were also introduced. The variants were expressed using M103202L1045-SK1 as light chain and their affinity to human FcγRs was analyzed according to the method shown in Example 34.
Background: In SPR one partner is held on a chip, and binding of the other changes the refractive index at the surface.
As for B1, binding was characterised by a dissociation constant (Kd) of 14 µM.

As to B2, the affinity, expressed as Kd, was 14 µM.

B3 registered a Kd of 12 µM.

B4 yielded a Kd of 7.7 µM.

In turn, B5 returned a Kd of 9 µM.

As for B6, the Kd came to 19 µM.

Regarding B7, the Kd came to 12 µM.

B8 displayed a Kd of 8.9 µM.

Regarding B9, binding was characterised by a dissociation constant (Kd) of 7.5 µM.

A further test addresses T2, human FcγRIIaH extracellular domain, …. The test is described as above. The protocol:
as §1, §2
As to B1, the Kd stood at 52 µM.

In turn, B2 came in with a Kd of 150 µM.

Consider B3, for which binding was put at a Kd of 42 µM.

Molecule B4 showed a Kd of 48 µM.

In turn, B5 gave a Kd of 25 µM.

Consider B6, for which the Kd was 110 µM.

In turn, B7 yielded a Kd of 50 µM.

For the molecule B8, the affinity, expressed as Kd, was 22 µM.

Consider B9, for which the affinity, expressed as Kd, was 37 µM.

The target of a further test is T3, human FcγRIIb extracellular domain, …. The test is described as above. How it is done:
as §1, §2
On to B1, for which the Kd turned out to be 820 nM.

B2 gave a Kd of 570 nM.

The molecule B3 showed a Kd of 360 nM.

On to B4, for which the Kd came out at 850 nM.

Molecule B5 gave a Kd of 430 nM.

B6 came in with a Kd of 560 nM.

In turn, B7 yielded a Kd of 400 nM.

On to B8, for which the Kd is 490 nM. The Kd values of the last two molecules are within 1.5-fold of each other.

With B9, the Kd was 810 nM.

The target of the next test is T4, human FcγRIIIaV extracellular domain, C-terminal His-tag (human, UniProt P08637 17-208).
T4 construct: also called FcgRIIIaV; not shown: His-tag added to the C-terminus
T4 sequence (P08637 17-208 F176V): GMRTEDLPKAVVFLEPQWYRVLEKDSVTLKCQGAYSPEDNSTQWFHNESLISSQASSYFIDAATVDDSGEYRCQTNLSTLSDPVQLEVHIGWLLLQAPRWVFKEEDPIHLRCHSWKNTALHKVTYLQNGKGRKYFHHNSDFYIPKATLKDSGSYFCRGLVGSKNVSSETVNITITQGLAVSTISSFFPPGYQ
The test is described as above. The protocol:
as §1, §2
The molecule B1 had a Kd of 130 µM.

With B2, the Kd was found to be 66 µM.

Molecule B3 displayed a Kd of 440 µM. Against the preceding molecule, the Kd is about 6.7-fold higher.

On to B4, for which binding was put at a Kd of 82 µM.

For the molecule B5, the equilibrium dissociation constant (Kd) stood at 180 µM.

For B6, binding was put at a Kd of 290 µM.

In the case of B7, the Kd turned out to be 110 µM.

Molecule B8 gave a Kd of 96 µM.

Molecule B9 gave a Kd of 89 µM.

A further test deals with T1, human FcγRIIaR extracellular domain, …. Description: SPR; KD of SG1 divided by KD of variant.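 Also: relative to parent M103205H795-SG1 carrying the SG1 human heavy chain constant region.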 The protocol: as §1, §2
For the molecule B1, the “KD fold (SG1 = 1)” value was determined as 0.08 fold.

Turning to B2, the “KD fold (SG1 = 1)” value was 0.08 fold.

Take B3: the “KD fold (SG1 = 1)” value was 0.09 fold.

Consider B4, for which the “KD fold (SG1 = 1)” value is 0.14 fold.

As to B5, the “KD fold (SG1 = 1)” value turned out to be 0.12 fold.

Turning to B6, the “KD fold (SG1 = 1)” value is 0.06 fold.

Turning to B7, the “KD fold (SG1 = 1)” value is 0.09 fold.

For B8, the “KD fold (SG1 = 1)” value came to 0.12 fold.

Take B9: the “KD fold (SG1 = 1)” value amounted to 0.15 fold.

Another test addresses T2, human FcγRIIaH extracellular domain, …. Description: SPR; KD of SG1 divided by KD of variant.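 Also: relative to parent M103205H795-SG1 carrying the SG1 human heavy chain constant region.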 The protocol:
as §1, §2
Take B1: the “KD fold (SG1 = 1)” value was 0.014 fold.

On to B2, for which the “KD fold (SG1 = 1)” value amounted to 0.005 fold.

Turning to B3, the “KD fold (SG1 = 1)” value turned out to be 0.018 fold.

On to B4, for which the “KD fold (SG1 = 1)” value is 0.016 fold.

With B5, the “KD fold (SG1 = 1)” value was determined as 0.03 fold.

Take B6: the “KD fold (SG1 = 1)” value stood at 0.007 fold.

For the molecule B7, the “KD fold (SG1 = 1)” value was 0.015 fold.

For the molecule B8, the “KD fold (SG1 = 1)” value amounted to 0.034 fold.

Regarding B9, the “KD fold (SG1 = 1)” value came out at 0.02 fold.

For a further test, the target named is T3, human FcγRIIb extracellular domain, …. Kind of test: SPR; KD of SG1 divided by KD of variant.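 Also: relative to parent M103205H795-SG1 carrying the SG1 human heavy chain constant region.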 The protocol: as §1, §2
With B1, the “KD fold (SG1 = 1)” value came out at 7.1 fold.

Take B2: the “KD fold (SG1 = 1)” value was 10.2 fold.

Take B3: the “KD fold (SG1 = 1)” value was determined as 16.1 fold.

As for B4, the “KD fold (SG1 = 1)” value turned out to be 6.8 fold.

Consider B5, for which the “KD fold (SG1 = 1)” value stood at 13.5 fold.

In the case of B6, the “KD fold (SG1 = 1)” value came to 10.4 fold.

For B7, the “KD fold (SG1 = 1)” value is 14.5 fold.

Regarding B8, the “KD fold (SG1 = 1)” value stood at 11.8 fold.

On to B9, for which the “KD fold (SG1 = 1)” value amounted to 7.2 fold.

A further test has as its target T4, human FcγRIIIaV extracellular domain, …. Description: SPR; KD of SG1 divided by KD of variant.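 Also: relative to parent M103205H795-SG1 carrying the SG1 human heavy chain constant region.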 The protocol: as §1, §2
On to B1, for which the “KD fold (SG1 = 1)” value came out at 0.006 fold.

As to B2, the “KD fold (SG1 = 1)” value amounted to 0.012 fold.

Consider B3, for which the “KD fold (SG1 = 1)” value came to 0.002 fold.

Consider B4, for which the “KD fold (SG1 = 1)” value is 0.01 fold.

For the molecule B5, the “KD fold (SG1 = 1)” value came to 0.004 fold.

B6: the “KD fold (SG1 = 1)” value is 0.003 fold.

As for B7, the “KD fold (SG1 = 1)” value was found to be 0.007 fold.

As to B8, the “KD fold (SG1 = 1)” value is 0.008 fold.

Turning to B9, the “KD fold (SG1 = 1)” value worked out at 0.009 fold.
